Among the targets are mouse FcγR1/CD64 (mouse) (UniProt P26151); human FcγR1/CD64 (human) (UniProt P12314); rat FcγR3A/CD16a (rat) (UniProt Q6XPU4); rat FcγR2B/CD32b (rat) (UniProt Q63203).
Assay [1] deals with neuraminidase of influenza A/HK/1/1968 (H3N2) (influenza A virus A/HK/1/1968 (H3N2)) (UniProt Q91MA2). As to the kind of experiment: cell-based or functional assay.
The target of assay [2] is neuraminidase of influenza A/CA/07/2009 (H1N1)pdm (influenza A virus A/CA/07/2009 (H1N1)pdm). As to the kind of experiment: cell-based or functional assay.
Assay [3] has as its target neuraminidase of influenza B/Malaysia/2506/2004 (Victoria) (influenza B virus B/Malaysia/2506/2004 (Victoria)). The experiment in a line: cell-based or functional assay.
Assay [4] addresses Neuraminidase of influenza A/Hawaii/70/2019 (H1N1pdm09) (influenza A virus A/Hawaii/70/2019 (H1N1pdm09)). As to the kind of experiment: cell-based or functional assay.
Assay [5] has as its target Neuraminidase of influenza B/Washington/02/2019 (Victoria) (influenza B virus B/Washington/02/2019 (Victoria)). As to the kind of experiment: cell-based or functional assay.
Assay [6] has as its target Neuraminidase of influenza B/Phuket/3073/2013 (Yamagata) (influenza B virus B/Phuket/3073/2013 (Yamagata)). As to the kind of experiment: cell-based or functional assay.
In assay [7] the target is Neuraminidase of influenza A/Hong Kong/2671/2019 (H3N2) (influenza A virus A/Hong Kong/2671/2019 (H3N2)). The experiment in a line: cell-based or functional assay.
The target of assay [8] is mouse FcRn (mouse) (UniProt Q61559). The experiment in a line: pH 7.4.
In assay [9] the target is cynomolgus monkey FcRn (cynomolgus monkey) (UniProt Q8SPV9). The experiment in a line: pH 7.4.
In assay [10] the target is mouse FcγR2B/CD32b (mouse) (UniProt P08101).
Assay [11] has as its target cynomolgus monkey FcγR2B/CD32b (cynomolgus monkey).
Assay [12] addresses cynomolgus monkey FcγR2A/CD32a (cynomolgus monkey).
The target in assay [13] is cynomolgus monkey FcγR1/CD64 (cynomolgus monkey).
The target of assay [14] is human FcγR2A/CD32a (R167) (human) (UniProt P12318).
The target of the next assay is rat FcRn (rat) (UniProt P13599). The experiment in a line: pH 5.8.
The target of assay [15] is mouse FcRn (mouse) (UniProt Q61559). As to the kind of experiment: pH 5.8.
Assay [16] concerns the target cynomolgus monkey FcRn (cynomolgus monkey) (UniProt Q8SPV9). As to the kind of experiment: pH 5.8.
The next assay deals with human FcRn (human) (UniProt P55899). As to the kind of experiment: pH 5.8.
Sequence of human FcRn (human) (P55899 24-297 limits assumed, form in doubt, chain 1 of 2): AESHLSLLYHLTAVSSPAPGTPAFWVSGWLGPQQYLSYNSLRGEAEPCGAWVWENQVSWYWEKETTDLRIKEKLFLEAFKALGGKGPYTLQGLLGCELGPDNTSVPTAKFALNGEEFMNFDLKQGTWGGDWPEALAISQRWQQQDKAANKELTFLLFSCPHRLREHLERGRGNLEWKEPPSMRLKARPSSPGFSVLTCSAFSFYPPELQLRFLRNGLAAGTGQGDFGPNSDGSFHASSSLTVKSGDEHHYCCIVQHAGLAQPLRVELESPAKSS
Sequence of human FcRn (human) (chain, as listed by the source limits assumed, form in doubt, chain 2 of 2): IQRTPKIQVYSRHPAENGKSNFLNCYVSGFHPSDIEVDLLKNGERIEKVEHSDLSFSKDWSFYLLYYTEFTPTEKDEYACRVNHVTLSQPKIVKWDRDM

Sequence of mouse FcRn (mouse) (Q61559 22-297 limits assumed, form in doubt, chain 1 of 2): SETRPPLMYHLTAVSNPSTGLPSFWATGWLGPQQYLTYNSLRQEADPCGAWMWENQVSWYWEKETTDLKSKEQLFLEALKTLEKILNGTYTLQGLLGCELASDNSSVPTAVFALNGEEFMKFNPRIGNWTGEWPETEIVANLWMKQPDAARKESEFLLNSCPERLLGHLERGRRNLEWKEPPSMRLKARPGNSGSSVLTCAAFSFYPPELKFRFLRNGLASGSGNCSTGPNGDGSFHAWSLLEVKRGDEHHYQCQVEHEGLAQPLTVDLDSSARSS
Sequence of mouse FcRn (mouse) (chain, as listed by the source limits assumed, form in doubt, chain 2 of 2): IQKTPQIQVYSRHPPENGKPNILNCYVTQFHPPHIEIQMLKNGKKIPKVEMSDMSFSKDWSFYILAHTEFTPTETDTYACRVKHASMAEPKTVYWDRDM
Sequence of mouse FcγR2B/CD32b (mouse) (P08101 30-210): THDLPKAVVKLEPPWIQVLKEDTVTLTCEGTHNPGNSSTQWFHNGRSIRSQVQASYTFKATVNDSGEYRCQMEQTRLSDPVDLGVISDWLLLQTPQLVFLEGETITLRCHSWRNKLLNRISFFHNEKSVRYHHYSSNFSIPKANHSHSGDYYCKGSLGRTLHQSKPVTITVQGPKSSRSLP
Sequence of rat FcγR2B/CD32b (rat) (Q63203 32-212): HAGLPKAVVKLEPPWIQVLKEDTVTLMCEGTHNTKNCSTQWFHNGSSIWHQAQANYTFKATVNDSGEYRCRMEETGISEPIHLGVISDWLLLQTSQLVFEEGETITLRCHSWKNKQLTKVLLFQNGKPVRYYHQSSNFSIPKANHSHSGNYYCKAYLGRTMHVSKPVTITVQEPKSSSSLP
Sequence of human FcγR1/CD64 (human) (P12314 16-288 limits assumed): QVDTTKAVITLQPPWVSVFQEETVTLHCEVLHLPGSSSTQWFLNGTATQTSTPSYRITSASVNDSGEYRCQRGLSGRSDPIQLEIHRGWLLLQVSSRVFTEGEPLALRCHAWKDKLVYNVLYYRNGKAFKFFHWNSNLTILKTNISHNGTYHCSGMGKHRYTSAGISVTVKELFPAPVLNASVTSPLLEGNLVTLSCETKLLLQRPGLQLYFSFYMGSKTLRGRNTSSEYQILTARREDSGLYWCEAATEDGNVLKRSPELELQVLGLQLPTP
Sequence of rat FcγR3A/CD16a (rat) (Q6XPU4 21-203 limits assumed): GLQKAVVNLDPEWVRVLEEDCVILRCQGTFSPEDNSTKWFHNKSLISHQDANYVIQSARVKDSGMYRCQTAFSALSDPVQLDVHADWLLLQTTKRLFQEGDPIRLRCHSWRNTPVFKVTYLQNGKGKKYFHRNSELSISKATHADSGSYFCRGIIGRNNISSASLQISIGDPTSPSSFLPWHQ
Sequence of mouse FcγR1/CD64 (mouse) (P26151 25-297 limits assumed): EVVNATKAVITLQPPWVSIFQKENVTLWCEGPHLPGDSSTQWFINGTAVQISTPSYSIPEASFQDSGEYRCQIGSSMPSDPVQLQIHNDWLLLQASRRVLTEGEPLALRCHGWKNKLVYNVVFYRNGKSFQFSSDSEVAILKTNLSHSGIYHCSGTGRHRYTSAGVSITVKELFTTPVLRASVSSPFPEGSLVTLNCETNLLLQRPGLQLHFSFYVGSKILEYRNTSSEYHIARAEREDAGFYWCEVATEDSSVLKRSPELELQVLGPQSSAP
Sequence of rat FcRn (rat) (P13599 23-298 limits assumed, form in doubt, chain 1 of 2): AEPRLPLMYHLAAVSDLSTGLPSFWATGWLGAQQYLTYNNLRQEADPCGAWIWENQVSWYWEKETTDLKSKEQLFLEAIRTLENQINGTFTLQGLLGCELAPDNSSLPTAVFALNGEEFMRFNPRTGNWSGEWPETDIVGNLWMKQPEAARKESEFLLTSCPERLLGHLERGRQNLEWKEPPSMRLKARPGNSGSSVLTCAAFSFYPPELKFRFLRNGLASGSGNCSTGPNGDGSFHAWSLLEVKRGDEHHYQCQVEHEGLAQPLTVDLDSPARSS
Sequence of rat FcRn (rat) (chain, as listed by the source limits assumed, form in doubt, chain 2 of 2): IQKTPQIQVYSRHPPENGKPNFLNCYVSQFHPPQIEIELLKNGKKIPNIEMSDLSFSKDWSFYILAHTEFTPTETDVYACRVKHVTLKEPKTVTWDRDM
Sequence of human FcγR2A/CD32a (R167) (human) (P12318 36-218 H167R): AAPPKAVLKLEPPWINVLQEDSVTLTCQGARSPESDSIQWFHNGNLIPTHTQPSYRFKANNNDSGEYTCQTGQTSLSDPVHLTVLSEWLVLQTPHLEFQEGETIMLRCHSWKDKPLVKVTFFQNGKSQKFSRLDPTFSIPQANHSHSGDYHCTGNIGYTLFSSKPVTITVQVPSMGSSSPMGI

Turning to “Fc alone (SEQ ID NO: 73) (from UniProt P0DOX5 203-448)”, in assay [1], the ADCP (fold induction), reporter cells on MDCK cells, MOI 0 (fold induction) was 1.02; the ADCP (fold induction), reporter cells on infected MDCK cells, MOI 0.1 (fold induction) amounted to 1.07; the ADCP (fold induction), reporter cells on infected MDCK cells, MOI 0.3 (fold induction) is 1.05; the ADCP (fold induction), reporter cells on infected MDCK cells, MOI 1 (fold induction) stood at 1.18. Also, in [1], the ADCP (fold induction), reporter cells on infected MDCK cells, MOI 3 (fold induction) came to 1.01 and the ADCP (fold induction), reporter cells on infected MDCK cells, MOI 10 (fold induction) came out at 1.06. Besides, in assay [2], the ADCP (fold induction), reporter cells on MDCK cells, MOI 0 (fold induction) is 0.98; the ADCP (fold induction), reporter cells on infected MDCK cells, MOI 0.1 (fold induction) is 1.14; the ADCP (fold induction), reporter cells on infected MDCK cells, MOI 0.3 (fold induction) was 1.03; the ADCP (fold induction), reporter cells on infected MDCK cells, MOI 1 (fold induction) was 0.99. In addition, in assay [2], the ADCP (fold induction), reporter cells on infected MDCK cells, MOI 3 (fold induction) amounted to 0.93 and the ADCP (fold induction), reporter cells on infected MDCK cells, MOI 10 (fold induction) came out at 1.05. Besides, in [3], the ADCP (fold induction), reporter cells on MDCK cells, MOI 0 (fold induction) came out at 1.07; the ADCP (fold induction), reporter cells on infected MDCK cells, MOI 0.1 (fold induction) was determined as 0.98; the ADCP (fold induction), reporter cells on infected MDCK cells, MOI 0.3 (fold induction) was 0.99; the ADCP (fold induction), reporter cells on infected MDCK cells, MOI 1 (fold induction) is 1.14. In assay [3], the ADCP (fold induction), reporter cells on infected MDCK cells, MOI 3 (fold induction) stood at 1.11 and the ADCP (fold induction), reporter cells on infected MDCK cells, MOI 10 (fold induction) worked out at 1.

Turning to hIgG1 Fc (from UniProt P01857 84-329), the IC50, enzyme-linked lectin assay (ELLA), fetuin substrate, live virus in [4], in [5], in [6] and in assay [7] was above 1000 nM in each case.

As for human IgG1 isotype control antibody, the EC50 is 40 nM in the assay with mouse FcRn (mouse) [8]; 78 nM in [9]; 153 nM in assay [10]; 3 nM with mouse FcγR1/CD64 (mouse); 1 nM in the assay with rat FcγR2A/CD32a (rat); 1 nM in [11]. Moreover, the 50% effective concentration (EC50) in assay [12] was 693 nM; in [13], 0.37 nM; with rat FcγR1/CD64 (rat), 2 nM; with human FcγR1/CD64 (human), 7 nM; in the assay with rat FcγR3A/CD16a (rat), 0.008 nM; in the assay with rat FcγR2B/CD32b (rat) it was 208 nM. The EC50 in [14] is 144 nM; with rat FcRn (rat), 13 nM; with mouse FcRn (mouse) [15] it was 5 nM; in [16], 28 nM; with human FcRn (human) it was 44 nM.

What is called EC50 is the concentration at which the effect is half-maximal.

The values are drawn from patent publication US11510992.
